Patent publication US20140031525A1, “MUTANT G-PROTEIN COUPLED RECEPTOR PROTEINS AND METHODS FOR PRODUCING THEM” (Heptares Therapeutics Limited, priority 2011, published 2014)

What was measured:
G proteins = assay: G protein activation by the engineered receptor; format: biochemical
[1] = Thermostability assay of detergent-solubilised receptor by [3H]-ZM241385 binding; format: physicochemical, human; conditions: in 0.1% decylmaltoside, 30 min heating
Procedure: FIG. 1: Thermostability of the adenosine A2A receptor alone, in combination with T4 lysozyme fusion or with thermostabilising mutations. Receptors were solubilised from transiently transfected cells using 0.025% DDM. Samples were heated at the specified temperature for 30 minutes, quenched on ice and the amount of receptor remaining was determined by a single-point binding assay using 100 nM [^3H]-ZM-241,385. Data is shown for the wild type A2a receptor (circles), A2A-T4L (squares), A2A-StaR1 (previously Rant21, upright triangles), A2A-T4 engineered to include the A2A-StaR1 mutations in combination with the T4L fusion (A54L^2.52/T88A^3.36/K122A^4.43 N239A^6.41) (inverted triangles) and vs A2a-StaR2 (diamonds).
Transfected HEK293T cells were resuspended in ice cold buffer [50 mM Tris pH7.4; 400 mM NaCl; 1% DDM and protease inhibitors (Complete, Roche)]. After incubation for 1 h at 4° C., samples were centrifuged (16,000×g, 20 min, 4° C.) and the supernatant was detergent exchanged into 0.1% decylmaltoside (DM) from Ni-NTA resin.
Thermostability was assessed by incubating with [^3H]-ZM241385 radioligand (100 nM) at increasing temperatures for 30 min followed by a 5 minutes incubation on ice. Receptor bound and free radioligand were separated by gel filtration as previously described'

B1: A2A-StaR2: human adenosine A2A receptor with mutations A54L, T88A, K122A, V239A, R107A, L202A, L235A, S277A (protein, UniProt P29274 1-412, looked up, variant A54L T88A K122A V239A R107A L202A L235A S277A)
Adenosine receptor A2a: MPIMGSSVYITVELAIAVLAILGNVLVCWAVWLNSNLQNVTNYFVVSLAAADILVGVLAIPFAITISTGFCAACHGCLFIACFVLVLAQSSIFSLLAIAIDRYIAIAIPLRYNGLVTGTRAAGIIAICWVLSFAIGLTPMLGWNNCGQPKEGKNHSQGCGEGQVACLFEDVVPMNYMVYFNFFACVLVPLLLMLGVYLRIFAAARRQLKQMESQPLPGERARSTLQKEVHAAKSAAIIAGLFALCWLPLHIINCFTFFCPDCSHAPLWLMYLAIVLAHTNSVVNPFIYAYRIREFRQTFRKIIRSHVLRQQEPFKAAGTSARVLAAHGSDGEQVSLRLNGHPPGVWANGSAPHPERRPNGYALGLVSGGSAQESQGNTGLPDVELLSHELKGVCPEPPGLDDPLAQDGAGVS
For B1, the G protein activation (G proteins) was “no longer activated G proteins” and the apparent thermostability [1] was 47 °C.
